Measured values taken from paper PMC2681181.

Target: Integrin β1 (human (endogenous in MCF-7 and MCF-10A)) (UniProt P05556)
Assay: co-IP

Chain of UniProt P05556 (P05556 21-798): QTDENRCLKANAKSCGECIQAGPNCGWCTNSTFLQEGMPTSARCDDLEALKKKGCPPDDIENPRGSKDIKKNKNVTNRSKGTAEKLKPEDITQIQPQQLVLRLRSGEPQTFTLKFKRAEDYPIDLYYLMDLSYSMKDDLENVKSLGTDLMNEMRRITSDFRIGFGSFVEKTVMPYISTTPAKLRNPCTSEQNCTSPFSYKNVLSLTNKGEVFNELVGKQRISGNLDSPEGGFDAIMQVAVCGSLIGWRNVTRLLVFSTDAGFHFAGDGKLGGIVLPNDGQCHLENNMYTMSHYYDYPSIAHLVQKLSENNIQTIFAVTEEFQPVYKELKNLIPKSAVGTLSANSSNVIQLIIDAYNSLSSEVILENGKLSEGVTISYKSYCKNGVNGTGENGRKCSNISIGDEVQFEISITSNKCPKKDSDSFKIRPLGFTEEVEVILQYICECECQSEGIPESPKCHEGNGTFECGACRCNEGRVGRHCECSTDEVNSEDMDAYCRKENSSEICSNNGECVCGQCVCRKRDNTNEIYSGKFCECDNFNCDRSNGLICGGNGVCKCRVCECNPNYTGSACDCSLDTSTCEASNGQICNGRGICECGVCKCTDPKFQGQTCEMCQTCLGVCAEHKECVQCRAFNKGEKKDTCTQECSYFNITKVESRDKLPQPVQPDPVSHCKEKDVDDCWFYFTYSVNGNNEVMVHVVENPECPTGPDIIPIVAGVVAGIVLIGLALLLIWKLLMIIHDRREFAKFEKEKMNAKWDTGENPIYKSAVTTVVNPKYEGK

type II collagen (from UniProt P02459 182-1241) (ligand)
percent decrease of co-precipitated CII in the combined CII/LAM treatment: 27.1%

Integrin α2 (from UniProt P17301 30-1181) (receptor)
percent increase of co-precipitated INTα2 after combined CII/LAM treatment: 53.8%

laminin (from UniProt P02469 22-1786) (complex)
percent decrease of co-precipitated LAM in the combined CII/LAM treatment: 27.8%
